Here are results for 34 molecules from patent US20250163119A1, “COMPOUNDS FOR THE TREATMENT OF DIABETES OR OBESITY” (Eli Lilly and Company, priority 2023, published 2025).

*1 amine or outer side, *2 acyl side, *3 side chain or, on linkers, in order; H or OH if unused. Where no end group is shown, it is not given here. Side-chain parts run from the residue outwards. [ ]: non-standard residue; d: D form. The star is where a group is joined. C20 diacid = O=C(O)CCCCCCCCCCCCCCCCCCC(=O)*; C18 diacid = O=C(O)CCCCCCCCCCCCCCCCC(=O)*; γGlu = O=C(O)[C@H](CCC(=O)[*:2])N[*:1]; εLys = N[C@@H](CCCCN[*:1])C(=O)[*:2]; pGlu = O=C1CC[C@@H](C(=O)O)N1; αMeL = CC(C)C[C@](C)(N)C(=O)O; PKE = not defined here; AEEA = NCCOCCOCC(=O)O; Aib = CC(C)(N)C(=O)O; Ahx = NCCCCCC(=O)O; βAla = NCCC(=O)O Bounds are passed on as bounds.

To fix the notation:
T1: human corticotropin-releasing hormone receptor 1 (CRHR1) (human, UniProt P34998 24-415)
T1 sequence (looked up): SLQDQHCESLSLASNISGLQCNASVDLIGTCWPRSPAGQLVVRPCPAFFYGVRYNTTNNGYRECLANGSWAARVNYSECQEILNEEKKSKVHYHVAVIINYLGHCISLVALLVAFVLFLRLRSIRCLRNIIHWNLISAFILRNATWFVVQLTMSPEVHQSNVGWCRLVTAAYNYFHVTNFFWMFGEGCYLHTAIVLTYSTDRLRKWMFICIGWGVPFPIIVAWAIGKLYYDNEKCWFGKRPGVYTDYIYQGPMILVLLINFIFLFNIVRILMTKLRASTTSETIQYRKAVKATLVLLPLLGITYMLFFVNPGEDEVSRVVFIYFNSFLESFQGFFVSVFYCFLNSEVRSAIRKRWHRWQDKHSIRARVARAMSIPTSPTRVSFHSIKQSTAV

B1: polypeptide comprising SEQ ID NO:28 (peptide)
peptide: [γGlu]GSPSIVTS[αMeL]DVPT[Aib][αMeL]LQKILEQERAEKARQQATEAAEILAQV-NH2
modifications: not fully specified (residue 1, N-terminus); also: Glu1 linked through its gamma-carboxyl to Gly2
B2: polypeptide comprising SEQ ID NO:26 (peptide)
peptide: [γGlu]GSPSIVTS[αMeL]DVPT[Aib][αMeL]LQKILEQERAEKARQQATEAAEILAQV-NH2
modifications: not fully specified (residue 1, N-terminus); also: Glu1 linked through its gamma-carboxyl to Gly2

The assay has as its target T1, human corticotropin-releasing hormone …. Put plainly: cell-based or functional assay.
Ac-GSPSIVTS[αMeL]DVPT[Aib][αMeL]LQKILEQERAEKARQQAK([γGlu-Pro-Lys-Glu-Ahx-C20 diacid])EAAEILAQV-NH2 [polypeptide comprising SEQ ID NO:11]: the “hCRHR1 cAMP EC50” value was over 10 µM.
Turning to Ac-IVTS[αMeL]D[dV]PTG[αMeL]LQIKLEQERAEKARQQAKENTEILAQV-NH2 (not fully specified (residue 29)) [polypeptide comprising SEQ ID NO:30], the “hCRHR1 cAMP EC50” value was over 10 µM.
For [pGlu]GSPSGIVTS[αMeL]DVPT[Aib][αMeL]LQKILEQERAEKARQQAKEAAEILAQV-NH2 [polypeptide comprising SEQ ID NO:23], the “hCRHR1 cAMP EC50” value was over 10 µM.
Consider Ac-IVTS[αMeL]D[dV]PI[Aib][αMeL]LQIKLEQERAEKARQQAKENTEILAQV-NH2 (not fully specified (residue 29)) [polypeptide comprising SEQ ID NO:51], for which the “hCRHR1 cAMP EC50” value was determined as 4.3 µM.
To Ac-IVTS[αMeL]D[dV]PTG[αMeL]LQIKLEQERAEKARQQAKENTEILAQV-NH2 (not fully specified (residue 29)) [polypeptide comprising SEQ ID NO:35] belongs 3 µM.
As for Ac-GSPSIVTS[αMeL]DVPT[Aib][αMeL]LQKILEQERAEKARQQAK([AEEA-PKE-γGlu-C20 diacid])EAAEILAQV-NH2 (reading uncertain) [polypeptide comprising SEQ ID NO:3], the “hCRHR1 cAMP EC50” value was over 10 µM.
To Ac-GSPSIVTS[αMeL]DVPT[Aib][αMeL]LQKILEQERAEKARQQAK([βAla-Ser-βAla-Ser-γGlu-C20 diacid])EAAEILAQV-NH2 [polypeptide comprising SEQ ID NO:10] belongs over 10 µM.
The result for Ac-GSPSIVTS[αMeL]DVPT[Aib][αMeL]LQKILEQERAEKARQQAK([Gly-βAla-βAla-βAla-γGlu-C20 diacid])EAAEILAQV-NH2 [polypeptide comprising SEQ ID NO:7] reads over 10 µM.
To Ac-IVTS[αMeL]D[dV]PTG[αMeL]LQIKLEQERAEKARQQAKENTEILAQV-NH2 (not fully specified (residue 29)) [polypeptide comprising SEQ ID NO:37] belongs 1.7 µM; to Ac-IVTS[αMeL]D[dV]PTG[αMeL]LQIKLEQERAEKARQQAKENTEILAQV-NH2 (not fully specified (residue 29)) [polypeptide comprising SEQ ID NO:34], over 10 µM; to B1, over 10 µM.
For Ac-GSPSIVTS[αMeL]DVPT[Aib][αMeL]LQKILEQERAEKARQQAK([Gly-βAla-βAla-βAla-βAla-γGlu-C20 diacid])EAAEILAQV-NH2 [polypeptide comprising SEQ ID NO:8], the “hCRHR1 cAMP EC50” value is over 10 µM.
To Ac-GSPSIVTS[αMeL]DVPT[Aib][αMeL]LQKILEQERAEKARQQAK([γGlu-AEEA-εLys-C18 diacid])EAAEILAQV-NH2 [polypeptide comprising SEQ ID NO:21] belongs over 10 µM; to Ac-GSPSIVTS[αMeL]DVPT[Aib][αMeL]LQKILEQERAEKARQQAK([AEEA-KEKEKE-γGlu-C20 diacid])EAAEILAQV-NH2 [polypeptide comprising SEQ ID NO:9], over 10 µM; to Ac-GSPSIVTS[αMeL]DVPT[Aib][αMeL]LQKILEQERAEKARQQAK([γGlu-Pro-Pro-Pro-Pro-Pro-Pro-C20 diacid])EAAEILAQV-NH2 [polypeptide comprising SEQ ID NO:15], over 10 µM.
To Ac-GSPSIVTS[αMeL]DVPT[Aib][αMeL]LQKILEQERAEKARQQAK([γGlu-Pro-Pro-Pro-εLys-C20 diacid])EAAEILAQV-NH2 [polypeptide comprising SEQ ID NO:14] belongs over 10 µM; to Ac-GSPSIVTS[αMeL]DVPT[Aib][αMeL]LQKILEQERAEKARQQAK([γGlu-Pro-Glu-Pro-Glu-Pro-Glu-C20 diacid])EAAEILAQV-NH2 [polypeptide comprising SEQ ID NO:16], over 10 µM.
Ac-GSPSIVTS[αMeL]DVPT[Aib][αMeL]LQKILEQERAEKARQQAK([γGlu-AEEA-AEEA-εLys-C20 diacid])EAAEILAQV-NH2 [polypeptide comprising SEQ ID NO:17]: the “hCRHR1 cAMP EC50” value was over 10 µM.
The result for Ac-IVTS[αMeL]D[dV]PTG[αMeL]LQIKLEQERAEKARQQAKENTEILAQV-NH2 (not fully specified (residue 29)) [polypeptide comprising SEQ ID NO:32] reads over 10 µM; that for Ac-IVTS[αMeL]D[dV]PTG[αMeL]LQIKLEQERAEKARQQAKENTEILAQV-NH2 (not fully specified (residue 29)) [polypeptide comprising SEQ ID NO:31], over 10 µM.
The result for Ac-IVTS[αMeL]D[dV]PTG[αMeL]LQIKLEQERAEKARQQAKENTEILAQV-NH2 (not fully specified (residue 29)) [polypeptide comprising SEQ ID NO:38] reads 1.1 µM.
Turning to [pGlu]GSPSGIVTS[αMeL]DVPT[Aib][αMeL]LQKILEQERAEKARQQAK([γGlu-AEEA-εLys-C18 diacid])EAAEILAQV-NH2 [polypeptide comprising SEQ ID NO:24], the “hCRHR1 cAMP EC50” value was over 10 µM.
As to B2, the “hCRHR1 cAMP EC50” value was over 10 µM.
The result for Ac-GSPSIVTS[αMeL]DVPT[Aib][αMeL]LQKILEQERAEKARQQAK([γGlu-εLys-AEEA-εLys-C20 diacid])EAAEILAQV-NH2 [polypeptide comprising SEQ ID NO:19] reads over 10 µM.
Ac-GSPSIVTS[αMeL]DVPT[Aib][αMeL]LQKILEQERAEKARQQAK([γGlu-AEEA-Ahx-C20 diacid])EAAEILAQV-NH2 [polypeptide comprising SEQ ID NO:5]: the “hCRHR1 cAMP EC50” value is over 10 µM.
Turning to Ac-GSPSIVTS[αMeL]DVPT[Aib][αMeL]LQKILEQERAEKARQQAK([γGlu-εLys-γGlu-εLys-C20 diacid])EAAEILAQV-NH2 [polypeptide comprising SEQ ID NO:18], the “hCRHR1 cAMP EC50” value is over 10 µM.
To Ac-IVTS[αMeL]D[dV]PTG[αMeL]LQIKLEQERAEKARQQAKENTEILAQV-NH2 (not fully specified (residue 29)) [polypeptide comprising SEQ ID NO:36] belongs 1.8 µM; to Ac-GSPSIVTS[αMeL]DVPT[Aib][αMeL]LQKILEQERAEKARQQAK([γGlu-GKEKEKE-C20 diacid])EAAEILAQV-NH2 [polypeptide comprising SEQ ID NO:6], over 10 µM; to Ac-GSPSIVTS[αMeL]DVPT[Aib][αMeL]LQKILEQERAEKARQQAK([γGlu-Pro-Lys-Glu-εLys-C20 diacid])EAAEILAQV-NH2 [polypeptide comprising SEQ ID NO:13], over 10 µM.
The result for H-GSPSIVTS[αMeL]DVPT[Aib][αMeL]LQKILEQERAEKARQQATEAAEILAQV-NH2 [polypeptide comprising SEQ ID NO:27] reads over 10 µM.
For Ac-IVTS[αMeL]D[dV]PTG[αMeL]LQIKLEQERAEKARQQAKENTEILAQV-NH2 (not fully specified (residue 29)) [polypeptide comprising SEQ ID NO:33], the “hCRHR1 cAMP EC50” value is 1.1 µM.
To Ac-GSPSIVTS[αMeL]DVPT[Aib][αMeL]LQKLLEQERAEKARQQAK([γGlu-AEEA-Lys-C18 diacid])EAAEILAQV-NH2 (not fully specified) [polypeptide comprising SEQ ID NO:12] belongs over 10 µM.
Ac-GSPSIVTS[αMeL]DVPT[Aib][αMeL]LQKILEQERAEKARQQAKEAAEILAQV-NH2 [polypeptide comprising SEQ ID NO:20]: the “hCRHR1 cAMP EC50” value is over 10 µM.
Turning to [γGlu]GSPSIVTS[αMeL]DVPT[Aib][αMeL]LEKILEQERAEKARQQATEAAEILAQV-NH2 (not fully specified (residue 1, N-terminus)) [polypeptide comprising SEQ ID NO:52], the “hCRHR1 cAMP EC50” value worked out at 1.5 µM.
